Patent US20230330254A1 (Regeneron, published 2023)
Where two headings read alike, the source gives them in different places.

Key:
[1] = biological target: T1, full-length human GLP1R on HEK293/CRE-Luc/hGLP1R cells (human, UniProt P43220 24-463); assay: flow cytometry, hGLP1R cells
T1 construct: whole, on cells

[2] = biological target: T2, full-length human gastric inhibitory polypeptide receptor on HEK293/CRE-Luc/hGIPR cells (human, UniProt P48546 22-466); assay: cell-based or functional assay
T2 sequence (looked up): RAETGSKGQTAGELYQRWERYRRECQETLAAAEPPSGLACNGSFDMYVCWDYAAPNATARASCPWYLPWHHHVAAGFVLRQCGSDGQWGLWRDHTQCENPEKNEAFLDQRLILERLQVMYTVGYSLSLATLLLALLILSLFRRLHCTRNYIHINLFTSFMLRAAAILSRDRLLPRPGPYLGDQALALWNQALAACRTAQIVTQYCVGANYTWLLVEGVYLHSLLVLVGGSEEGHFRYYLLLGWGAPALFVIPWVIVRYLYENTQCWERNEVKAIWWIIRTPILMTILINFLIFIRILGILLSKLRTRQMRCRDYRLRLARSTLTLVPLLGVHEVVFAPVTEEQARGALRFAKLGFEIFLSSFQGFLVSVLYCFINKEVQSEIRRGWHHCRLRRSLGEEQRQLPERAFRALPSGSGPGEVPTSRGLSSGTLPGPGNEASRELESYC

[3] = biological target: T3, full-length human glucagon-like peptide 2 receptor on HEK293/CRE-Luc/hGLP2R cells (human, UniProt O95838 1-553); assay: cell-based or functional assay
T3 sequence (looked up): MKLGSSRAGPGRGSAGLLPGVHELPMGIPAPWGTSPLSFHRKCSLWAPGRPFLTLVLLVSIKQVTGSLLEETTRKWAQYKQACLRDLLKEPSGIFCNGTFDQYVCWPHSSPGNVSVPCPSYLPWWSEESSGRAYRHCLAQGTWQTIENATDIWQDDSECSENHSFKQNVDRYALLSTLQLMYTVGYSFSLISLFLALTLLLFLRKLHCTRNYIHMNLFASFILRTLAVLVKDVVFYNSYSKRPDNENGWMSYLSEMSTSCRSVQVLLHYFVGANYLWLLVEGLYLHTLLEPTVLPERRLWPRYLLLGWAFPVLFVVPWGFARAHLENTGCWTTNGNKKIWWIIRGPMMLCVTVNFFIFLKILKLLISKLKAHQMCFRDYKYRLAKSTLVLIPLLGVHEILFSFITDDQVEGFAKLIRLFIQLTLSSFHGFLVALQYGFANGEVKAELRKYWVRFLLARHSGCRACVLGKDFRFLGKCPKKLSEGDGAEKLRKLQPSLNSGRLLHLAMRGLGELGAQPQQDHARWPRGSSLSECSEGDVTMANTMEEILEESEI

[4] = biological target: T4, full-length cynomolgus GLP1R on HEK293/CRE-Luc/mfGLP1R cells (cynomolgus, UniProt F8V479 24-463); assay: cell-based or functional assay
[5] = biological target: T5, full-length human glucagon receptor on HEK293/CRE-Luc/hGCGR cells (human, UniProt P47871 26-477); assay: cell-based or functional assay
[6] = biological target: T1, full-length human GLP1R on …; assay: cell-based or functional assay
[7] = biological target: T6, N-terminal ectodomain of human GLP1R expressed with a myc-myc hexahistidine tag (human, UniProt P43220 24-145, limits assumed); assay: SPR, captured via anti-hFc, 25 C
T6 construct: extracellular domain; also called hGLP1R-MMH; hGLP1R.mmh

[8] = biological target: T4, full-length cynomolgus GLP1R on …; assay: flow cytometry, mfGLP1R cells
[9] = biological target: T1, full-length human GLP1R on …; assay: cell-based or functional assay; remark: listed apart in the source
[10] = biological target: T1, full-length human GLP1R on …; assay: flow cytometry, hGLP1R cells; remark: listed apart in the source
[11] = biological target: T4, full-length cynomolgus GLP1R on …; assay: flow cytometry, mfGLP1R cells; remark: listed apart in the source
[12] = biological target: T7, full-length mouse GLP1R on HEK293/CRE-Luc/mGLP1R cells (mouse, UniProt O35659 22-463); assay: flow cytometry, mGLP1R cells
T7 construct: whole, on cells
T7 sequence (looked up): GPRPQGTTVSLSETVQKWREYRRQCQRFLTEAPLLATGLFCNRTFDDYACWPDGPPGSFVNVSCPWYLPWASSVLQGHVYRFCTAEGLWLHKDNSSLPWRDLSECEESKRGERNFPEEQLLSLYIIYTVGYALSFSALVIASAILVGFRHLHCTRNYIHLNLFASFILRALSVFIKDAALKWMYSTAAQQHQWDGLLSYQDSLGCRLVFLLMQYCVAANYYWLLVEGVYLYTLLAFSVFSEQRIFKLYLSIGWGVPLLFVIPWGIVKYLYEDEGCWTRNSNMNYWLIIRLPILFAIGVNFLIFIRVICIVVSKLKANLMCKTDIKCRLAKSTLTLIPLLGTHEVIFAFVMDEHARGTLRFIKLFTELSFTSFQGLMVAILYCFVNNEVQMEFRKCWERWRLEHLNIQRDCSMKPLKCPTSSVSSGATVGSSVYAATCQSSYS

[13] = biological target: T2, full-length human gastric inhibitory …; assay: cell-based or functional assay; remark: listed apart in the source
[14] = biological target: T3, full-length human glucagon-like peptide …; assay: cell-based or functional assay; remark: listed apart in the source
[15] = biological target: T4, full-length cynomolgus GLP1R on …; assay: cell-based or functional assay; remark: listed apart in the source
[16] = biological target: T5, full-length human glucagon receptor on …; assay: cell-based or functional assay; remark: listed apart in the source
[17] = biological target: T1, full-length human GLP1R on …; assay: cell-based or functional assay; remark: listed apart in the source
[18] = biological target: human GLP1R on PathHunter eXpress GLP1R CHO-K1 b-Arrestin GPCR cells (human, UniProt P43220 24-463); assay: cell-based or functional assay
[19] = biological target: T1, full-length human GLP1R on …; assay: cell-based or functional assay; remark: listed apart in the source

T5 sequence (P47871 26-477): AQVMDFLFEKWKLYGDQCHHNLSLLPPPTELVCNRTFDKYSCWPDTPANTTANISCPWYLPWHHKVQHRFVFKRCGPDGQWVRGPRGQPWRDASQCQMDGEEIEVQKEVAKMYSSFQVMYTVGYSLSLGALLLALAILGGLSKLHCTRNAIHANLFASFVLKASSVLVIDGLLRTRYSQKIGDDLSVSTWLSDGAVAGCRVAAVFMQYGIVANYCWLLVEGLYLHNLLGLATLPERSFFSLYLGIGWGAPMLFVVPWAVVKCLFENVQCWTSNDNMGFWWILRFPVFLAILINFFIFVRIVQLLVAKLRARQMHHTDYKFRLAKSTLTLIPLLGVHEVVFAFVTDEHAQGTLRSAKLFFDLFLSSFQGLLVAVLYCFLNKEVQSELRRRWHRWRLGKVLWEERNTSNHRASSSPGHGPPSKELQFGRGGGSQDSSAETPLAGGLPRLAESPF
T6 sequence (P43220 24-145 limits assumed): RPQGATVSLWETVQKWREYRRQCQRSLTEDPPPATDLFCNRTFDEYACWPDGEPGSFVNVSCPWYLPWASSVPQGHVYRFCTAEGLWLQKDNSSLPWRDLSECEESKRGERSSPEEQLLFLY

Binder	EC50 [1] [nM]	Flow S/N [1] [fold]	CRE-luc EC50 [2] [nM]	CRE-luc EC50 [3] [nM]	CRE-luc EC50 [4] [nM]	CRE-luc EC50 [5] [nM]	CRE-luc EC50 [6] [nM]	90 nM hGLP1R.mmh Bound (RU) [7] [RU]	Kd [7] [nM]	koff [7] [s⁻¹]	kon [7] [M⁻¹ s⁻¹]	t1/2 [7] [h]	EC50 [8] [nM]	Flow S/N [8] [fold]	CRE-luc EC50 [9] [nM]	CRE-luc Relative Potency (% M2361 EC50) [9] [%]	CRE-luc Relative Signal:Noise (% M2361) [9] [%]	CRE-luc S/N [9] [fold]	EC50 [10] [nM]	EC50 [11] [nM]	also measured
REGN9267-M3190 (antibody, human IgG4 S228P, kappa, linker-payload M3190 (LP11) on Gln 3 of the N-terminal Q-tag LLQGSG, antibody-tethered drug conjugate; Q-tag on heavy chain; also called REGN9267 ATDC) heavy: not shown light: EIVLTQSPGTLSLSPGERDTLSCRASQSIAGRYVAWYQQKPGQAPRLLIYGASSRATGIPDRFSGSGSGTDFTLTISRLEPEDFAVYYCQQYGSSPWTFGQGTKVEIKRTVAAPSVFIFPPSDEQLKSGTASVVCLLNNFYPREAKVQWKVDNALQSGNSQESVTEQDSKDSTYSLSSTLTLSKADYEKHKVYACEVTHQGLSSPVTKSFNRGEC	5.08	269	> 200	> 200	0.25	> 200	0.212	110	0.528	0.000186	353000	1.03	4.44	212	0.0854	19	107	68.9			
REGN8070-M3190 (antibody, human IgG4 S228P, kappa, V domains shown, linker-payload M3190 (LP11) on Gln 3 of the N-terminal Q-tag LLQGSG, antibody-tethered drug conjugate; also called REGN8070 ATDC) VH: QVQLVESGGGVGQPGRSLRLSCAASGFTFSRNAMHWVRQAPGKGLEWVAVISYDGSNKHYADSVKGRFTISRDNSKNTLYLEMNSLRVEDTAVYYCAKGGIPFDYWGQGTLVTVSS VL: DIVMTQSPLSSPVTLGQPASISCRSSQSLVHFDGNTYLSWLHQRPGQPPRLLIYKISNRFSGVPDRFSGSGAGTDFTLKISRVEPEDVGVYYCMHATQFPYTFGQGTKLEIKR	4.39	166	> 200	> 200	0.0973	> 200	0.094	86.7	0.069	6.06e-05	878000	3.17	3.71	155	0.0984	16.5	112	71.8			
REGN9268 (antibody, human IgG4 S228P, kappa, IgG4; Q-tag LLQGSG at the N-terminus of the light chain; also called mAb 17; REGN9268 unconjugated Ab) heavy: not shown light: LLQGSGEIVLTQSPGTLSLSPGERDTLSCRASQSIAGRYVAWYQQKPGQAPRLLIYGASSRATGIPDRFSGSGSGTDFTLTISRLEPEDFAVYYCQQYGSSPWTFGQGTKVEIKRTVAAPSVFIFPPSDEQLKSGTASVVCLLNNFYPREAKVQWKVDNALQSGNSQESVTEQDSKDSTYSLSSTLTLSKADYEKHKVYACEVTHQGLSSPVTKSFNRGEC													0.81						3.33	4.13	EC50 [12]: 45 nM
REGN8072-M3190 (antibody, human IgG4 S228P, kappa, V domains shown, linker-payload M3190 (LP11) on Gln 3 of the N-terminal Q-tag LLQGSG, antibody-tethered drug conjugate; also called REGN8072 ATDC; anti-GLP1R mAb4-LP11) VH: QVQLVESGGGVVQPARSLRLSCAASGFAFSRSAMHWVRQAPGKGLEWVAVISYDGSNKYYTDSVKGRFTISRDNSKNTLYLQMNTLRAEDTALYYCAKMYTTMDSFDYWGQGTLVTVSS VL: DIQLTQSPSFLSASVGDRVTITCWASQGISSYLAWYQQKPGKAPKLLIYAASTLQSGVPSRFSGSGSGTEFTLTISSLQPEDFALYYCQQLNSYPRTFGQGTKVEIKR	3.88	173	> 200	> 200	0.137	> 200	0.114	77.3	0.17	0.000297	1.74e+06	0.65	3.39	148	0.0874	18.6	125	80.7			
REGN7990 (antibody, human IgG4 S228P, kappa, V domains shown, IgG4; Q-tag on light chain N-terminus; also called mAb 3; REGN7990 unconjugated Ab) VH: not shown VL: DIQMTQSPSSVSASVGDRVTITCRASQGINSWLAWYQQKPGKAPKLLIYAASSLQSGVPSRFSGSGSGTDFTLTISSLQPEDFATYYCHQADSFPYTFGQGTKLEIKR	1.89	256											0.988	205					8.48	7.47	Flow S/N [10]: 260 fold; CRE-luc EC50 [13]: > 30 nM; CRE-luc EC50 [14]: > 30 nM; CRE-luc EC50 [15]: > 30 nM; CRE-luc EC50 [16]: > 30 nM; CRE-luc EC50 [17]: > 30 nM; Flow S/N [11]: 528 fold; EC50 [12]: 61.4 nM; Flow S/N [12]: 154 fold
REGN15869 (antibody, human IgG4 S228P, kappa, V domains shown, IgG4; Q-tag on light chain N-terminus; also called REGN15869 unconjugated Ab) VH: not shown VL: DIQMTQSPSSVSASVGDRVTITCRASQGINSWLAWYQQKPGKAPKLLIYAASSLESGVPSRFSGSGSGTDFTLTISSLQPEDFATYYCHQADSFPYTFGQGTKLEIKR																			9.56	8.96	b-arrestin 2 recruitment EC50 [18]: > 1000 nM; b-arrestin 2 recruitment Emax (% GLP-1) [18]: 4.3%; CRE-luc EC50 [19]: > 1000 nM; CRE-luc Emax (% GLP-1) [19]: 0.5%; Flow S/N [10]: 106 fold; CRE-luc EC50 [13]: > 30 nM; CRE-luc EC50 [14]: > 30 nM; CRE-luc EC50 [15]: > 30 nM; CRE-luc EC50 [16]: > 30 nM; CRE-luc EC50 [17]: > 30 nM; Flow S/N [11]: 132 fold; EC50 [12]: 43.1 nM; Flow S/N [12]: 53.3 fold
